The results in this text go back to patent publication US20230295308A1, “ANTAGONISTIC BIPARATOPIC ANTIBODIES THAT SPECIFICALLY BIND FIBROBLAST GROWTH FACTOR RECEPTOR 2 AND METHODS OF USING SAME” (The Broad Institute, Inc., priority 2020, published 2023).

“Also recorded” adds a separate entry of the source.

The target of assay [1] is FGFR2 on SNU-16 gastric cancer cell line with FGFR2 amplification (UniProt P21802). The assay is described as follows: FACS on SNU-16 cells, % cells with FITC+ [cont.].
For assay [2] the target is unchanged. The assay is described as follows: row 'Kd (nM) (FACS)'; FACS on SNU-16 cells.
For assay [3] the target is unchanged. The assay is described as follows: FACS on SNU-16 cells, % No. of cells with FITC+ [cont.].
Assay [4] has the same target. Nature of the assay: FACS on SNU-16 cells, % cells with FITC+ against log antibody concentration; Kd printed in the legend box [cont.].
In assay [5] the target is T1, FGFR2IIIb.
T1 construct: also called purified FGFR2IIIb
T1 chain: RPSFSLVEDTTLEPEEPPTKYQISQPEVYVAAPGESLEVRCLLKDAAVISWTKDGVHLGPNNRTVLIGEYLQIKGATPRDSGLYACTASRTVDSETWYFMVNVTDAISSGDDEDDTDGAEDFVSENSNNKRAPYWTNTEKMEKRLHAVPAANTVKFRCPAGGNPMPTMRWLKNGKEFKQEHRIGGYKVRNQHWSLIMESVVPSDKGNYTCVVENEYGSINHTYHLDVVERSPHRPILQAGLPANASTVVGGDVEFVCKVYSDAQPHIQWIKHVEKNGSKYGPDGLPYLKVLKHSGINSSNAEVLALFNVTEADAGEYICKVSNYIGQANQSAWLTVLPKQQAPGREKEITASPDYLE
The assay is described as follows: row 'Kd (nM) (patent)', value quoted from the source patent; method: solution equilibrium titration (SET)/ELISA+ECL-FGFR2IIIb. In general terms: An ELISA detects its analyte on a solid surface through an enzyme-linked reagent.

In assay [6] the target is FGFR2b alpha IIIb antigen (UniProt P21802). The assay is described as follows: SPR (Biacore), antibody immobilized, FGFR2b alpha IIIb in flow.
Assay [7] has as its system FGFR2-PHDGH fusion expressing BaF3 cells. The assay is described as follows: ligand stimulated (FGF10) growth of FGFR2-PHGDH fusion expressing BaF3 cells (FIG. 10). The assay is classed as cell-based. Particulars: FGF10 present. As for the experimental part:
FIG. 10 is a graph showing that antibodies C, D, E and F have activity against ligand stimulated growth of FGFR2-PHDGH fusion expressing BaF3 cells.
The growth of BaF3 cells expressing an FGFR2-PHDGH fusion was assayed in the presence of FGF ligand, FGF10. Antibodies C, D, E and F inhibited ligand stimulated growth of FGFR2-PHDGH fusion expressing BaF3 cells (FIG. 10). Based on the results reported herein above, antagonistic biparatopic antibodies are made using the FGFR2 antibody combinations shown in FIG. 11A. These combinations result in increased growth inhibition effects in oncogenic or cancer cells (e.g., transformed BaF3 cells) that overexpressed […]. Thus, antibodies that bind to epitopes have increased inhibitory and killing effects against cancer cells. Designs for antagonistic biparatopic antibodies are shown at FIGS. 11B and 11C. Advantageously, including complementary mutations in VH-VL and CH1-CL on one-half of the biparatopic antibody results in preferential heterodimeric pairing between two different chains rather than chains from the other half of the same antibody. Alternatively, a linker method is used to create scFab, scFv, or DuoBodies. In this method two antibody chains are each generated in different cells and mixed in vitro. Such methods are known in the art and described, for example, by K. Ding et al, March 2017, Appl. Microbiol. […]

The test system of assay [8] is BaF3 cells overexpressing FGFR2-PHGDH. Nature of the assay: combination of BGJ398 and anti-FGFR2 bivalent antibody, isobolograms and Loewe scores (FIGS. 14, 15). The assay is classed as cell-based. Particulars: absence of FGF10, treated for 5 days. The source says: FIGS. 14B-14D provide isobolograms showing synergy between FGFR inhibitor and the anti-[…] bivalent antibody on the different days and supporting the results shown in FIG. 14A. FIG. 14B corresponds to 3 days after treatment with the BGJ398 inhibitor; FIG. 14C corresponds to 4 days after treatment with the BGJ398 inhibitor; and FIG. 14D corresponds to 5 days after treatment with the BGJ398 inhibitor. FIG. 14E provide Loewe scores showing synergy between the FGFR inhibitor and the anti-FGF2 bivalent antibody on the different days and supporting the results shown in FIG. 14A.
FIG. 15A presents charts showing synergy between the FGFR2 small molecule inhibitor BGJ398 and an anti-FGFR2 bivalent antibody (Antibody D) in the presence of FGF ligand (+FGF) in a cell-based assay using BaF3 cells overexpressing an FGFR2 fusion molecule (FGFR2-PHGDH) after 3, 4 and 5 days of treatment with the inhibitor and the antibody. […] FIGS. 15B-15D provide isobolograms showing synergy between the FGFR inhibitor and the anti-FGF2 bivalent antibody on the different days and supporting the results shown in FIG. 15A. FIG. 15B corresponds to 3 days after treatment with the BGJ398 inhibitor; FIG. 15C corresponds to 4 days after treatment with the BGJ398 inhibitor; and FIG. 15D corresponds to 5 days after treatment with the BGJ398 inhibitor. […]

Assay [9] has as its target FGFR2b alpha IIIb antigen (UniProt P21802). Nature of the assay: SPR (Biacore), antibody on chip, FGFR2b alpha IIIb antigen. (Surface plasmon resonance follows binding to a sensor surface in real time, without labels.)
Assay [10] has as its system FGFR2-PHDGH fusion expressing BaF3 cells. The assay is described as follows: growth of BaF3 cells expressing FGFR2-PHGDH fusion, absence of FGF ligands (FIG. 9). The assay is classed as cell-based. Particulars: absence of FGF ligands. The protocol: Antibodies A-F were tested to determine whether they could inhibit the ligand-induced growth of BaF3 cells expressing FGFR2IIIb. Antibodies C, D, and E, which bind FGFR2 Ig-2 and Ig-3, were effective in blocking ligand-induced growth of BaF3 cells expressing wild-type FGFR2IIIb (FIG. 8). The effects of antibodies A-F were then tested on BaF3 cells expressing FGFR2-PHDGH fusions. […] Antibody F inhibited the FGFR2-PHDGH activating fusion in BaF3 cells (FIG. 9).

Assay [11] concerns the target FGFR2b alpha IIIb (Homo sapiens, UniProt P21802). The assay is described as follows: Surface Plasmon Resonance (SPR) binding. Particulars: FGFR2b alpha IIIb antigen. The source says:
FIGS. 17A-17C provide a schematic and tabular data related to assessments made to compare the avidity of biparatopic antibodies to that of their parental (bivalent monospecific) antibodies.
Surface Plasmon Resonance (SPR) as known in the art was used to determine the binding affinities of biparatopic antibodies. The SPR-based binding method involves immobilization of a ligand (antibody) on the surface of a sensor chip. The binding partner of interest or an analyte (FGFR2 ECD) flow through the flow channel. Different concentrations of an analyte flow over the ligand, and the interactions of ligand-analyte can be characterized. The SPR signal originates from changes in the refractive index of the […] at the surface of the sensor chip. The increase in mass associated with a binding event causes a proportional increase in the refractive index, which is observed as a change in response-resonance signal. In brief, for the experiments using the antibodies described herein, the SPR assay was carried out by immobilizing antibodies (used as […]) at a concentration ranging from 1-1000 nM and flow-through FGFR2b alpha IIIb antigen (used as […]). The antibody kinetic data for the interaction with FGFR2b alpha IIb antigen were fitted to the 2-state and 1-1 binding models using Biocore software. The mean and standard deviation KD values are derived from at least three independent runs.
Using SPR, the kinetics of 6 monospecific and 13 biparatopic antibodies for binding to a single antigen, FGFR2b alpha IIb, was measured so as to compare avidity of the biparatopic antibodies to their parental antibodies. Without wishing to be bound by theory, it was expected that the biparatopic antibodies would bind to the FGFR2 antigen more tightly than their parental antibodies and that the tighter binding biparatopic antibodies among the antibodies that were assessed would be more efficient in blocking FGFR2 dimerization (FIG. 17A), thereby leading to inhibition or blocking of constitutive FGFR2 signaling and/or oncogenic transformation. […]

B1: 12433 (antibody, V domains shown)
VH: QVQLVQSGAEVKKPGESLKISCKGSGYSFTNYYIHWVRQMPGKGLEWMGAIYPDNSDTTYSPSFQGQVTISADKSISTAYLQWSSLKASDTAMYYCARGADIWGQGTLVTVSS
VL: DIQMTQSPSSLSASVGDRVTITCRASQDIDPYLSNWYQQKPGKAPKLLIYDASNLQSGVPSRFSGSGSGTDFTLTISSLQPEDFATYYCQQTTSHPYTFGQGTKVEIK
notes: the duobody scheme implies IgG1 with K409R or F405L; also called Antibody F; N12433
The EC50 (read off the curve) is the concentration that produces a half-maximal response. The term Kd denotes the concentration at which binding is half-saturated. Read a low Kd as a tighter complex. B1: the EC50 (read off the curve) in [1] and in [3] was 1 mg/L throughout. For the same molecule, the Kd in assay [2] came to 8.81 nM; in [4], 8.81 nM; in assay [5], 5.6 nM; in assay [9], 7.5 nM; in assay [11], 7.5 nM. Besides, the Binding Stoichiometry in assay [6] amounted to 2.1. The “inhibition of ligand stimulated growth of FGFR2-PHGDH fusion expressing BaF3 cells” value in [7] is “have activity; also recorded: inhibited”. In addition, in assay [8], the “synergy with BGJ398 in inhibiting FGFR2-PHGDH driven BaF3 cell growth” value is “synergizes”. Further, the “inhibitory activity against the FGFR2-PHGDH activating fusion in BaF3 cells” value in assay [10] was “inhibitory activity; also recorded: inhibited”.
